These results are taken from PMC11946513, “Modulation of the substrate preference of a MYST acetyltransferase by a scaffold protein” (The Journal of Biological Chemistry, 2025).

For assay [1], the target named is KAT6A MYST domain (KAT6A 501-784) (human) (UniProt Q92794).
Assay [2] deals with full-length KAT6A (KAT6A^FL) (human) (UniProt Q92794).
For assay [3], the target named is KAT6A^FL 4-protein complex (KAT6A^FL 4-plex) (UniProt Q92794).
The target in assay [4] is KAT6A^FL-BRPF1 2-protein complex (KAT6A^FL 2-plex) (human) (UniProt Q92794).
Sequence of KAT6A^FL-BRPF1 2-protein complex (KAT6A^FL 2-plex) (human) (Q92794 whole entry, chain 1 of 2): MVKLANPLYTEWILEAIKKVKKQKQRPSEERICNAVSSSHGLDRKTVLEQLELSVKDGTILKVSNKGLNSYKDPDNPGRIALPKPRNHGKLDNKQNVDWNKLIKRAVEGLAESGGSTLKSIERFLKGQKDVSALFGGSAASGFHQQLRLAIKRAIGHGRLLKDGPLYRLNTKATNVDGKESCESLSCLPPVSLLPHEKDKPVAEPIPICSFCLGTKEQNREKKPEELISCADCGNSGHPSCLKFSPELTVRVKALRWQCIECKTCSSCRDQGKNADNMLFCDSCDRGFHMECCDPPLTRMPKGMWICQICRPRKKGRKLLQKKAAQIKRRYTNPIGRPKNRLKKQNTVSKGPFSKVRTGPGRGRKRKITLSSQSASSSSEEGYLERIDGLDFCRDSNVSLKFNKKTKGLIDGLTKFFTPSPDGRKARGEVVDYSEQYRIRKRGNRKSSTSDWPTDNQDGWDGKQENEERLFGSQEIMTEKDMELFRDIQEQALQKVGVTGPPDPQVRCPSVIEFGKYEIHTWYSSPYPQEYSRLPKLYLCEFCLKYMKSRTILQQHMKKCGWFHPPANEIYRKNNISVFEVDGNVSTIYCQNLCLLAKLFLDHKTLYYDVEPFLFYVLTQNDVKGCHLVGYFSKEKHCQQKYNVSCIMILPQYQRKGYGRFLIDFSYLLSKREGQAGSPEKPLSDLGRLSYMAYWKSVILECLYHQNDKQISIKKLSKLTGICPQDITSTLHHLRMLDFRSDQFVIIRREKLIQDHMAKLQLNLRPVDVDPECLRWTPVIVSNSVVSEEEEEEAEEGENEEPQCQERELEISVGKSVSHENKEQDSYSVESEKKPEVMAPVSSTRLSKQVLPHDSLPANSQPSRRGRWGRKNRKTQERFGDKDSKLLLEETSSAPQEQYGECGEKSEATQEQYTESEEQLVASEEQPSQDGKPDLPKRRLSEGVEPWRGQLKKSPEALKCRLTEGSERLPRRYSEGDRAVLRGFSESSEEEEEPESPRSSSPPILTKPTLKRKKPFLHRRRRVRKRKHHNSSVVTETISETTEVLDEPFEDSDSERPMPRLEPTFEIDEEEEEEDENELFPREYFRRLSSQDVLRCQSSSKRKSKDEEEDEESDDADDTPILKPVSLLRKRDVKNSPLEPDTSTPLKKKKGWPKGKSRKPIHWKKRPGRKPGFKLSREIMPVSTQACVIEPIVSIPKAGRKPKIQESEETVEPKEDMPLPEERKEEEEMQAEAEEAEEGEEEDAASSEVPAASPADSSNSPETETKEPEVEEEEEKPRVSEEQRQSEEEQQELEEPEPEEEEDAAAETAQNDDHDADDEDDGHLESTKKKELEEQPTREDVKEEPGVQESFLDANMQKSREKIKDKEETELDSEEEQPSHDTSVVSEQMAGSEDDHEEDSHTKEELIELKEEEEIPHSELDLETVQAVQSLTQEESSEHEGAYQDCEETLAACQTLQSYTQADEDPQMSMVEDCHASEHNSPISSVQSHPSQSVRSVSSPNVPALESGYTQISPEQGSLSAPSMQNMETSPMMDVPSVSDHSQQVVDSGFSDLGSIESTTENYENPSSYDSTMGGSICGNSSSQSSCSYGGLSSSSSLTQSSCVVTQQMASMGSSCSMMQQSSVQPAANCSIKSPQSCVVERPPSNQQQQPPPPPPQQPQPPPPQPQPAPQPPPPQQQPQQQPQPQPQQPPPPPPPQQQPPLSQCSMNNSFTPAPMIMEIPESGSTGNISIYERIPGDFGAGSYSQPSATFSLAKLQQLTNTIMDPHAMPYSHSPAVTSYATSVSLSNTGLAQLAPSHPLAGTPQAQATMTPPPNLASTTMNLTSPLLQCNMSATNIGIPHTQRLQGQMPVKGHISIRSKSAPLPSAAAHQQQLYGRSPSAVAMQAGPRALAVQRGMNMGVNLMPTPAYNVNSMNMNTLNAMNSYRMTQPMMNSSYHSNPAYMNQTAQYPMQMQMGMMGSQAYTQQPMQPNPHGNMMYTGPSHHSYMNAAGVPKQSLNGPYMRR
Sequence of KAT6A^FL-BRPF1 2-protein complex (KAT6A^FL 2-plex) (human) (P55201 whole entry, chain 2 of 2, further chain): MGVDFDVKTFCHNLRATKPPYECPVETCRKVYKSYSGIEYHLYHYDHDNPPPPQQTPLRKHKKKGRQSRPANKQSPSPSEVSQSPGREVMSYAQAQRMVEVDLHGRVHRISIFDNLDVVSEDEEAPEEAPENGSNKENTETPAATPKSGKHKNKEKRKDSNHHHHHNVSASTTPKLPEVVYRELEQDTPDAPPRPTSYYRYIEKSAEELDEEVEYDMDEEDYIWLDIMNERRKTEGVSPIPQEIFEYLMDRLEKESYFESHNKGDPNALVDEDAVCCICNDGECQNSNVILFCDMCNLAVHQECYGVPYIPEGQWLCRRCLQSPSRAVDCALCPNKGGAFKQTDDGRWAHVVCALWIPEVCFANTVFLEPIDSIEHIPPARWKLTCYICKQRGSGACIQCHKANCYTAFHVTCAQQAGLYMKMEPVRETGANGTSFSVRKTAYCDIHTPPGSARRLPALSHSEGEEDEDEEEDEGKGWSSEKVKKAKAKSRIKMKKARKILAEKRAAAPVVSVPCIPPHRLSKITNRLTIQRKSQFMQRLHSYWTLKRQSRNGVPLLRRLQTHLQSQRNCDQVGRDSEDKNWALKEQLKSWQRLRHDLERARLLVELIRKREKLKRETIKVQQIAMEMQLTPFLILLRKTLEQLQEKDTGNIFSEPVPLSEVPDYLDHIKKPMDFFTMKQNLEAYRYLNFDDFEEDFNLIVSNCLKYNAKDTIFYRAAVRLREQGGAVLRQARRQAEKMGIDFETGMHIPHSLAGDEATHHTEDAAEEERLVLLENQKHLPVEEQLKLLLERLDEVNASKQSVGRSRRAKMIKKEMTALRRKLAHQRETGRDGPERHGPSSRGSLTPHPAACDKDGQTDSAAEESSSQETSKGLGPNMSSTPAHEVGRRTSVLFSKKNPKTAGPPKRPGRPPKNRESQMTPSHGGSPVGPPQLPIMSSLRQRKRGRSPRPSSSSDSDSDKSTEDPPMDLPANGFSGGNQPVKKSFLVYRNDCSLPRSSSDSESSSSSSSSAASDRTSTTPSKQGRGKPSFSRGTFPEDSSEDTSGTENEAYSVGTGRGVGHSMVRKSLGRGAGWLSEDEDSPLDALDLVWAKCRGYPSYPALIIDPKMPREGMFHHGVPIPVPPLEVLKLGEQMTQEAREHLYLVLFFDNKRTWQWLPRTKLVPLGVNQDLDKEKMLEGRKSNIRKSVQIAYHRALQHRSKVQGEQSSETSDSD

Sequence of KAT6A MYST domain (KAT6A 501-784) (human) (Q92794 501-784): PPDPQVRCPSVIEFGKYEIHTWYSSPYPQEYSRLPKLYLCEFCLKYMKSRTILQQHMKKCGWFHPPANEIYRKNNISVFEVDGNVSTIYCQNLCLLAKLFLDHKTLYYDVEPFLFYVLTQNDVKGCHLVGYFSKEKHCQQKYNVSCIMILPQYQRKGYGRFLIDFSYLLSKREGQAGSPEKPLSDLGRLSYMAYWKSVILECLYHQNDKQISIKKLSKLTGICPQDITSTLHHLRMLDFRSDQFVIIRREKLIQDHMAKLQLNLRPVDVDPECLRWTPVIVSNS
Sequence of full-length KAT6A (KAT6A^FL) (human) (Q92794 whole entry): as the sequence (Q92794 whole entry, chain 1 of 2) above
Sequence of KAT6A^FL 4-protein complex (KAT6A^FL 4-plex) (Q92794 whole entry, looked up, one chain of several): as the sequence (Q92794 whole entry, chain 1 of 2) above

Turning to H3 (1-21) (peptide), the KM of steady-state acetylation of the peptide (CoA formation by MS; 20 μM AcCoA, 25 °C) in assay [1] is 380 µM; in assay [2] it was 16 µM.
For the substance H3.3 (1-43) (peptide), the KM of steady-state acetylation of the peptide (CoA formation by MS; 20 μM AcCoA, 25 °C) in assay [1] was 130 µM; in assay [2], 3.2 µM.
As to H3.3 (15-36) (peptide), the KM of steady-state acetylation of the peptide (CoA formation by MS; 20 μM AcCoA, 25 °C) came to 360 µM in assay [1], 30 µM in assay [2], 16 µM in assay [3] and 13 µM in assay [4].
